Assay results reported in patent US6602687B1, “DNA encoding human ciliary neurotrophic factor and method for producing the protein encoded thereby” (Regeneron Pharmaceuticals, Inc., priority 1989, dated 2003).

Legend:
[1] = tested on: Ventral spinal cord neurons; experiment: Choline acetyltransferase (CAT) activity in ventral spinal cord cultures; format: cell-based, rat
Protocol: Sprague-Dawley rats (HSD or Zivic-Miller) were used for all experiments. Pregnant rats (E14) were sacrificed as described in 10.1.1.
Spinal cords were removed aseptically from rat embryos as described in 10.1.2. The cord tissues were minced into small pieces and incubated in 0.1% trypsin (GIBCO) and 0.01% deoxyribonuclease type 1 (Sigma) at 37° C. for 20 minutes. Trypsin solution was then removed, rinsed and replaced with medium consisting of 45% Eagle's minimum essential medium (MEM), 45% Ham's nutrient mixture F12 (F12), 5% fetal calf serum (GIBCO), 5% horse serum (GIBCO) glutamine (2 mM), penicillin G (0.5 U/ml), and streptomycin (0.5 ug/ml). This was then mechanically dissociated twice by gentle trituration through a Pasteur pipet in the same medium, and the supernatants were pooled and filtered through a nylon filter (Nitex, Tetko; 40 um). Total cell number yielded was determined by hemocytometer counting in the presence of trypan blue. Dissociated ventral cells were then plated at a density of approximately 50,000 cells/cm^2 on dishes coated with poly-L-ornithine (10 ug/ml) and laminin (5 ug/ml). Treatments were given on the day of plating, except for delayed addition experiments in which treatments were given on days 2 or 6. Cultures were maintained at 37° C. in 95% air/5% CO2 atmosphere at nearly 100% relative humidity. Culture medium was changed every 3 to 4 days. A mitotic inhibitor, cytosine arabinoside (Ara C; 0.5 uM), was added on day 2 to reduce the number of nonneuronal cells. On day 7, cells were harvested for measurements of choline acetyltransferase (CAT; Fonnum, 1975 J. Neurochem. 24:407-409) and protein (Bradford, 1976, Annal. Biochem. 72:248-254) levels or fixed in 4% paraformaldehyde for NF assay (Doherty et al., 1984, J. Neurochem. 42:1116-1122) and immunocytochemistry. Some cultures were grown in defined medium consisting of 50% F12 and 50% MEM, glutamine (2 mM), insulin (5 ug/ml), transferrin (100 ug/ml), progesterone (20 nM), putrescine (10 uM), and sodium selenite (30 nM) (Bottenstein and Sato, 1979, PNAS 76:514-517). In these cultures sera-containing medium was replaced with defined medium on day 1.
Cultures were harvested by lysing the cells in a 20 mM Tris-HCl (pH 8.6) solution containing 0.1% Triton X-100. Two microliters of the cell lysate was removed and assayed for CAT activity according to the micro-Fonnum procedure (Fonnum, 1975, J. Neurochem. 24:407-409). The final substrate composition consisted of 0.2 mM [1-^14C] Acetyl-CoA (NEN, 54.4 mCi/mmol), 300 mM NaCl, 8 mM choline bromide, 20 mM EDTA, and 0.1 mM neostigmine in 50 mM NaH2PO4 (pH 7.4) buffer. At these enzyme and substrate concentrations, the enzymatic reaction was linear for 90-120 minutes. The specificity of the induction for CAT was tested by the addition of a specific inhibitor of CAT activity, N-hydroxyethyl-4-(1-napthylvinyl) pyridium (HNP), during the assay (White and Cavallito, 1970, J. Neurochem. 17:1579-1589).

hippocampal neurons = experiment: Glutamate-induced toxicity in hippocampal cultures (MTT assay); format: cell-based, rat; conditions: in the presence of CNTF (10 ng/ml)
Protocol: FIG. 38. Protective effect of CNTF on glutamate-induced toxicity in hippocampal cultures. […] Glutamate at various concentations (100-1000 uM) was added for 15 minutes, after which the cells were cultured in the absence of glutamate or CNTF for 20 h. Survival of cells at the end of the culture period was assessed by MTT assay based on the conversion of MTT (3-(4,5-dimethylthiazol-2-yl)-2,5-diphenyl tetrazolium bromide) to a purple product by vital cells. MTT dye was added to a final concentration of 0.5 mg/ml. Dyes taken up by live cells were solubilized by the addition of 0.08N HCI in isopropranol 5 hours later, and O.D. (570-650 nm) was measured.
The effect of CNTF on GABAergic neurons was dependent on the density at which the cells were plated. […] This may be due to an elevated level of neurotrophic factors in high density cultures. […] We have assessed the neurotoxic effects of various concentrations of glutamate (10-1000 μM) by means of a calorimetric MTT assay, as shown in FIG. 38. At a concentration of 1 mM, glutamate reduced cell survival to approximately 10%. In the presence of CNTF ([…]), cell survival following exposure to glutamate was enhanced.

B1: CNTF: ciliary neurotrophic factor; recombinant rat CNTF in Sections 10, 15, 17, purified rat sciatic nerve CNTF in Section 11; see endpoint conditions (protein, UniProt P20294 1-200, looked up)
Ciliary neurotrophic factor: MAFAEQTPLTLHRRDLCSRSIWLARKIRSDLTALMESYVKHQGLNKNINLDSVDGVPVASTDRWSEMTEAERLQENLQAYRTFQGMLTKLLEDQRVHFTPTEGDFHQAIHTLMLQVSAFAYQLEELMVLLEQKIPENEADGMPATVGDGGLFEKKLWGLKVLQELSQWTVRSIHDLRVISSHQMGISALESHYGAKDKQM
- time after treatment at which increase in CAT activity was apparent [1]: 3 days
- effect on CAT activity with glia reduced to about 5% of total cells ([1]; AraC 0.5 uM or serum-free medium, CNTF 10 ng/ml): remained unchanged
- increase in CAT activity over the increase in number of cholinergic neurons ([1]; CNTF 10 ng/ml): 1.6 fold
- increase in CAT activity, delayed addition at day 2 ([1]; CNTF 10 ng/ml added on day 2, treated 7 further days): 1.2 fold
- effect on CAT activity, delayed addition at day 6 ([1]; CNTF 10 ng/ml added on day 6, treated 7 further days): can no longer influence CAT activity
- increase in CAT activity ([1]; CNTF 10 ng/ml, NGF 50 ng/ml, FGF 50 ng/ml at plating, after 7 days in culture): 4.0 fold
- CNTF concentration of maximal response in CAT activity ([1]; day 7): 1 ng/mL
- cell survival following exposure to glutamate (hippocampal neurons): enhanced
